In patent publication US20210188989A1 (SYSTIMMUNE, published 2021):

target: T1, recombinant human 4-1BB extracellular domain protein (human, UniProt Q07011 24-186); test: Octet, binding off-rate kdis; the sheet names no species of 41BB, paragraph 86: 'binding to human and recombinant 4-1BB by octet assay'
T1 construct: extracellular domain; Analyte in the Octet assay; also called CD137; TNFRSF9

Row | Binder | koff
1 | 411H11 VHv1VLv1 (antibody, human IgG1, kappa, V domains shown, one of the humanized antibodies; also called 411H11 humanized) VH: EVQLVESGGGLVQPGGSLRLSCAASGFTISSHHMIWVRQAPGKGLQYIGFINDGDYTYYTNSAKGRFTISRDNSKNTLYLQMNSLRAEDTAVYYCARGVDGTSYPGLWGQGTLVTVSS VL: DVVMTQSPSSVSASVGDRVTITCQASQSIGADLAWYQQKPGKAPKLLIYRASTLASGVPSRFSGSGSGTDFTLTISSLQPEDFATYYCQAIYYGTDDVIYHTFGGGTKVEIKR | 0.00179 s⁻¹
2 | 416F8 VHv3VLv1 (antibody, human IgG1, kappa, V domains shown, one of the humanized antibodies; also called 416F8 humanized) VH: QSLVESGGGLVQPGGSLRLSCAASGFSLSNYYMNWVRQAPGKGLEYIGIISSSGSAYYASSAKGRFTISRDNSKNTLYLQMNSLRAEDTAVYYCARGDYGMDLWGQGTLVTVSS VL: DIQMTQSPSSLSASVGDRVTITCQSSQTVYNNNLLSWYQQKPGKVPKLLIYYASTLAFGVPSRFSGSGSGTDFTLTISSLQPEDVATYYCQGGYSGWIYVFGGGTKVEIKR | 0.00645 s⁻¹
3 | 413F3 VHv1VLv1 (antibody, human IgG1, kappa, V domains shown, one of the humanized antibodies; also called 413F3 humanized) VH: EVQLVESGGGLVQPGGSLRLSCAASGIDFSSNYMCWVRQAPGKGLEWIACIYGDSSDNSYSASSAKGRFTISRDNSKNTLYLQMNSLRAEDTAVYYCARSGYSYLGYFNLWGQGTLVTVSS VL: DIQMTQSPSSLSASVGDRVTITCQASQSIYSNLAWYQQKPGKVPKLLIYSTSTLASGVPSRFSGSGSGTDFTLTISSLQPEDVATYYCQNYYGSSTDSYGNPFGGGTKVEIKR | 0.00224 s⁻¹
4 | 460C3 VHv1VLv1 (antibody, human IgG1, kappa, V domains shown, one of the humanized antibodies; also called 460C3 humanized) VH: EVQLLESGGGLVQPGGSLRLSCAASGIDFSRRYYMCWVRQAPGKGLEWIACIYTGSRDTPHYASSAKGRFTISRDNSKNTLYLQMNSLRAEDTAVYYCAREGSLWGQGTLVTVSS VL: DIQMTQSPSTLSASVGDRVTITCQSSQSVYSNWFSWYQQKPGKAPKLLIYSASTLASGVPSRFSGSGSGTEFTLTISSLQPDDFATYYCAGGYNTVIDTFAFGGGTKVEIKR | 0.000728 s⁻¹

Results, then the binder that gave them:

Row | koff | Binder
5 | 0.00166 s⁻¹ | 416G1 VHv1VLv1 (antibody, human IgG1, kappa, V domains shown, one of the humanized antibodies; also called 416G1 humanized) VH: EVQLVESGGGLVQPGGSLRLSCAASGFTINSYHMIWVRQAPGKGLEYIGFINDGGFTYYASSAKGRFTISRDNSKNTLYLQMNSLRAEDTAVYYCARGVDGTSYPDLWGQGTLVTVSS VL: DVVMTQSPSSVSASVGDRVTITCQASQSIGSDLAWYQQKPGKAPKLLIYRASTLASGVPSRFSGSGSGTDFTLTISSLQPEDFATYYCQSIYYGSDDVIYHTFGGGTKVEIKR
6 | 0.00245 s⁻¹ | 418H5 VHv2VLv1 (antibody, human IgG1, kappa, V domains shown, one of the humanized antibodies; also called 418H5 humanized) VH: EVQLVESGGGLVQPGGSLRLSCTASGIDLSAYHMSWVRQAPGKGLEYIGMIGSSGTIHYANSAKGRFTISKDNTKNTVDLQMNSLRAEDTAVYYCARDSYNSDYAFNLWGQGTLVTVSS VL: DIQMTQSPSSVSASVGDRVTITCQSSPSVYKNNQLAWYQQKPGKAPKLLIYLASTLASGVPSRFSGSGSGTDFTLTISSLQPEDFATYYCAGGYSSSSDTAFGGGTKVEIKR
7 | 0.00284 s⁻¹ | 419D9 VHv3VLv3 (antibody, human IgG1, kappa, V domains shown, one of the humanized antibodies; also called 419D9 humanized) VH: EVQLLESGGGLVQPGGSLRLSCTASGFSFSSRHYMCWVRQAPGKGLEWIACIYTGSSGTPHYASSAKGRFTISQDNSKNTVTLQMNSLRAEDTAVYYCAREGNLWGQGTLVTVSS VL: DIQMTQSPSTLSASVGDRVTITCQSSQSVYSNWLSWYQQKPGKAPKRLIYSASTLASGVPSRFSGSGSGTEFTLTISSLQPDDFATYYCAGGYNTVTDTFAFGGGTKVEIKR
8 | 0.00128 s⁻¹ | 420H6 VHv1VLv1 (antibody, human IgG1, kappa, V domains shown, one of the humanized antibodies; also called 420H6 humanized) VH: EVQLLESGGGLVQPGGSLRLSCAASGIDFSSSYYMCWVRQAPGKGLEWIACIYTGGSGTPHYASSAKGRFTISRDNSKNTLYLQMNSLRAEDTAVYYCAREGSLWGQGTLVTVSS VL: DIQMTQSPSTLSASVGDRVTITCQASQSVYSNWLSWYQQKPGKAPKLLIYSASTLASGVPSRFSGSGSGTEFTLTISSLQPDDFATYYCAGGYNTVIDTFAFGGGTKVEIKR
9 | 0.00131 s⁻¹ | 459F1 VHv1VLv1 (antibody, human IgG1, kappa, V domains shown, one of the humanized antibodies; also called 459F1 humanized) VH: EVQLLESGGGLVQPGGSLRLSCAASGIDFSRRYYMCWVRQAPGKGLEWIACMYTGSRDTPHYASSAKGRFTISRDNSKNTLYLQMNSLRAEDTAVYYCAREGNLWGQGTLVTVSS VL: DIQMTQSPSTLSASVGDRVTITCQSSQSVYSNWFSWYQQKPGKAPKLLIYSASTLASGVPSRFSGSGSGTEFTLTISSLQPDDFATYYCAGGYNTVTDTFAFGGGTKVEIKR
10 | 0.00265 s⁻¹ | 472E4 VHv1VLv1 (antibody, human IgG1, kappa, V domains shown, one of the humanized antibodies; also called 472E4 humanized) VH: EVQLVESGGGLVQPGGSLRLSCAASGFSLNNNAISWVRQAPGKGLEWVAIIQNTGTTDYARSAKGRFTISRDNSKNTLYLQMNSLRAEDTAVYYCARGYGFESELVIWGQGTLVTVSS VL: DIQMTQSPSSLSASVGDRVTITCQSSQSVYNNNALAWYQQKPGKVPKLLIYLASTLASGVPSRFSGSGSGTDFTLTISSLQPEDVATYYCLGVYNDDVDNGFGGGTKVEIKR
